From patent US20130202593A1

What was measured:
[1] = target: ΔRING-ΔBOX TRIM21 (human) (UniProt P19474); assay: steady-state fluorescence titration: quenching of intrinsic TRIM21 tryptophan fluorescence on titration of IgG
[2] = target: recombinant full-length TRIM21 (human) (UniProt P19474); assay: as above
[3] = target: IgG; assay: steady-state fluorescence titration (quenching of TRIM21 tryptophan fluorescence on titration of IgG)
[4] = target: IgG; assay: fluorescence titration spectroscopy

Row | EC50 (read off the curve) [1] | EC50 (read off the curve) [2] | Kd [3] | Kd [4] | Substance
1 | 3 nM | 1 nM |  |  | IgG (antibody)
2 |  |  | 0.6 nM | < 1 nM | recombinant full-length TRIM21 (from UniProt P19474 1-475) (receptor)
3 |  |  | 0.9 nM | < 1 nM | ΔRING-ΔBOX TRIM21 (from UniProt P19474 129-475) (receptor)
